Assay results: the supplement of paper PMC9170038

Test system: MS2 coat protein
Assay: apparent KD of MS2 coat protein; designed switch direction (-1 OFF switch, 1 ON switch): -1; higher = weaker reporter binding
How it was run: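 Designed RNA switches were transcribed on Illumina chips by stalled E. coli RNA polymerase and titrated with SNAP-549-labelled MS2 coat protein from 0.7 or 1.5 nM, doubling to 3 µM. Step length ran from 0.8–1.5 h at the lowest concentration to 10–20 min at the highest. The apparent KD is the median over clusters for each design, from curve-fitted normalised cluster fluorescence.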

[1] = Eterna round: R95, input ligand: FMN 200 uM
[2] = Eterna round: R95, input ligand: microRNA oligo, concentration not stated
[3] = Eterna round: R95, input ligand: none
[4] = input ligand: microRNA oligo, concentration not stated

With “CGUAGUCUUCGGACUACGAACAUGAGGAUCACCCAUGUAAUGAGCAGAUCUUCAUGCAAGCUUUUUGCUCGUCUUAU [Sensor v3 - turn-off variant 1 - 43] (puzzle: Sensor v3, turn-off variant 1)” the “apparent KD of MS2 coat protein” value [1] was 0.148 µM, the “apparent KD of MS2 coat protein” value [2] was 0.0147 µM and the “apparent KD of MS2 coat protein” value [3] was 0.227 µM.

In the case of “AAACGACAUGAGGAUCACCCAUGUGGCCCUUAGACUCGUAUCGAGGAUAUCCAGGGCCGGGCCGUGGAGAAGGCGAAUUAAAAU [Cetele] (Eterna round: R96, puzzle: Exclusion NG 3)”, the “apparent KD of MS2 coat protein” value (input ligand: FMN 200 uM) was 0.0638 µM, the “apparent KD of MS2 coat protein” value [4] was 0.0288 µM and the “apparent KD of MS2 coat protein” value (input ligand: none) was 0.0436 µM.

“GGACCGUGUGUGAGGAUAUGCUGGUCCUUGGAUCAGCAGAAGGCACAUGAGGAUCACCCAUGUGGUGUCGGUCC [Eli bmx4 4.35] (Eterna round: R97, puzzle: Brourd's mod of Exclusion 4)” was tested, and the “apparent KD of MS2 coat protein” value (input ligand: FMN 200 uM) was 0.182 µM and the “apparent KD of MS2 coat protein” value (input ligand: none) was 1.78 µM.

For “UACAUGAGGAUCACCCAUGUUUUGUCGUGUAUGGUAUUUAUCUAGGAUAUCAAUUAAUUUAUUUAUGAGAAGGAGAAUAUUAAU [JMF's solution 14] (Eterna round: R96, puzzle: Exclusion NG 3)”, the “apparent KD of MS2 coat protein” value (input ligand: FMN 200 uM) was 0.0403 µM, the “apparent KD of MS2 coat protein” value [4] was 0.0281 µM and the “apparent KD of MS2 coat protein” value (input ligand: none) was 0.0383 µM.

For “UAGAAGUUCAACGAGUGAAACAUGAGGAUCACCCAUGUGGUGGUAAGGAACAAGCUUUUUGCACGUACUUAUGAGGA [JR_SV3TOV1_Sub004] (puzzle: Sensor v3, turn-off variant 1)”, the “apparent KD of MS2 coat protein” value [1] was 0.287 µM, the “apparent KD of MS2 coat protein” value [2] was 0.4 µM and the “apparent KD of MS2 coat protein” value [3] was 0.452 µM.

For “CAGUACUGAGGAUAUACAUGAGGAUCACCCAUGUGAGAGAUACUAGUGAGGUCGAUUAGUAGAAGGCGGUACUG [Mat X3R4 m5] (Eterna round: R97, puzzle: Exclusion 3)”, the “apparent KD of MS2 coat protein” value (input ligand: FMN 200 uM) was 0.306 µM and the “apparent KD of MS2 coat protein” value (input ligand: none) was 0.0408 µM.

“CUCUAGUCAGGAUAUUAGUUGUCGCCCAGCAACGGGCGACAUGAGAAGGGACUUGAGGAUCACCCAAGUAAACG [Leorteti] (Eterna round: R97, puzzle: Exclusion 4)” was tested, and the “apparent KD of MS2 coat protein” value (input ligand: FMN 200 uM) was 0.279 µM and the “apparent KD of MS2 coat protein” value (input ligand: none) was 0.478 µM.

“UUAGAGUAAUAGGAUAUGCUACGUCACGGCUGUGCAGAAGGAUUAACAUGAGGAUCACCCAUGUGGUGAGUCCU [Eternabot (L1) Solution 31] (Eterna round: R97, puzzle: Exclusion 6)” was tested, and the “apparent KD of MS2 coat protein” value (input ligand: FMN 200 uM) was 0.242 µM and the “apparent KD of MS2 coat protein” value (input ligand: none) was 0.985 µM.

“CCUCGACAUGAGGAUCACCCAUGUCAGGAUAUUGUGUCUCGGGUUUUUUACCGAAAGGCGAGAAGGGAUGUGUG [LRO-Excl1-12] (puzzle: Exclusion 1)” was tested, and the “apparent KD of MS2 coat protein” value [2] was 0.0139 µM.

With “GUGUGCUGAGGAUAUACAGAGGAAGAUAAUACAAUAUAAGUACAUGAGGAUCACCCAUGUAGAAGGCAGAGUGU [Excluse me!! 11 - Jieux - Exclusion 2] (puzzle: Exclusion 2)” the “apparent KD of MS2 coat protein” value [2] was 0.0234 µM.

With “AAUUGCUAGCCGAUCCUCCACAUGAGGAUCACCCAUGUGCUUGUCUUGUAAUGUACUAUCACGAAAGUGAUAGUACA [Sensor v3, turn-off variant 1 (MOD of Eli's v1-59 v.5)] (puzzle: Sensor v3, turn-off variant 1)” the “apparent KD of MS2 coat protein” value [1] was 0.0447 µM, the “apparent KD of MS2 coat protein” value [2] was 0.0547 µM and the “apparent KD of MS2 coat protein” value [3] was 0.0432 µM.

“GUCAUCAAACAUGGGUUAAACAUGAGGAUCACCCAUGUUAUCAAGUUUUUUGCUCGUCUUAUAAUAAGUUUGAUGAC [Antenna 12 - Jieux - Sensor, turn-off variant 1] (Eterna round: R97, puzzle: Sensor, turn-off variant 1)” was tested, and the “apparent KD of MS2 coat protein” value (input ligand: FMN 200 uM) was 0.0357 µM and the “apparent KD of MS2 coat protein” value (input ligand: none) was 0.041 µM.

With “UCUUAUUGAGGAUAUACAUUAAUUUACAUGAGGAUCACCCAUGUUCUUCAAUGUAUAUAUGUAGAAGGCAGAAGAU [Mat - Exclusion 5 - JL Mod - D29] (Eterna round: R97, puzzle: Exclusion 5)” the “apparent KD of MS2 coat protein” value (input ligand: FMN 200 uM) was 0.0414 µM and the “apparent KD of MS2 coat protein” value (input ligand: none) was 0.0181 µM.

In the case of “AUCAUGUAAGGAUAUCUGACAAGUGACGAAAGUCACAGUUCAGAGAAGGUACAUGAGGAUCACCCAUGUAGAAC [Ex4-3: 42] (puzzle: Exclusion 4)”, the “apparent KD of MS2 coat protein” value [1] was 0.0824 µM, the “apparent KD of MS2 coat protein” value [2] was 0.0513 µM and the “apparent KD of MS2 coat protein” value [3] was 0.0716 µM.

“CUGAGGUAGCGGUCCUAUAACAUGAGGAUCACCCAUGUACCUUGCUUCGAGCUUUUAGCUCGUCUUAUGAUUCUCGG [Mat - Sensor v3 - turn-off var 1 - JL Mod - D37] (puzzle: Sensor v3, turn-off variant 1)” was tested, and the “apparent KD of MS2 coat protein” value [1] was 0.443 µM, the “apparent KD of MS2 coat protein” value [2] was 0.502 µM and the “apparent KD of MS2 coat protein” value [3] was 0.56 µM.

“UAUAACCGAGGAUAUACAUGAGGAUCACCCAUGUAAUGUAGUAUAAUAUAUGUAAAAUGUAGAAGGUGGGAUGU (Eterna round: R97, puzzle: Exclusion 3)” was tested, and the “apparent KD of MS2 coat protein” value (input ligand: FMN 200 uM) was 0.0443 µM and the “apparent KD of MS2 coat protein” value (input ligand: none) was 0.0549 µM.

“AUCCGGCGUGUAGGAUAUGGUUCCGUUUCGGUUCCAGAAGGACAUGAGGAUCACCCAUGUGCCUGUCGUCGGUCGUCACCGGGC [salish99_ExNG1_r04_218] (Eterna round: R96, puzzle: Exclusion NG 1)” was tested, and the “apparent KD of MS2 coat protein” value (input ligand: FMN 200 uM) was 0.0437 µM, the “apparent KD of MS2 coat protein” value [4] was 0.0134 µM and the “apparent KD of MS2 coat protein” value (input ligand: none) was 0.0165 µM.

For “AUAAUGUCAGGAUAUCAGUCGACUAGCUGCGGCUAGUCGACUGAGAAGGGACAUGAGGAUCACCCAUGUAGAUC [E4/18-A3] (Eterna round: R97, puzzle: Exclusion 4)”, the “apparent KD of MS2 coat protein” value (input ligand: FMN 200 uM) was 0.244 µM and the “apparent KD of MS2 coat protein” value (input ligand: none) was 0.992 µM.

For “GAGGUUUCAGGAUAUACAUGAGGAUCACCCAUGUUAUUAGUGUGGAUUGGUGUCCUGCGUAGAAGGGAGUAUAA [Eternabot (L2) Solution 93] (Eterna round: R97, puzzle: Exclusion 3)”, the “apparent KD of MS2 coat protein” value (input ligand: FMN 200 uM) was 0.0657 µM and the “apparent KD of MS2 coat protein” value (input ligand: none) was 0.0572 µM.

With “UUUUUUUUGCGAGGAUAUGCAUUUAGUUAGUUAGCAGAAGGCGCGUUUCUAUACUCCUCUUCGUACAUGAGGAUCACCCAUGUU [JR_ExcNG1_Sub032] (Eterna round: R96, puzzle: Exclusion NG 1)” the “apparent KD of MS2 coat protein” value (input ligand: FMN 200 uM) was 0.0749 µM, the “apparent KD of MS2 coat protein” value [4] was 0.0357 µM and the “apparent KD of MS2 coat protein” value (input ligand: none) was 0.0448 µM.

With “GUGUUUGGUGUAGGAUAUGUUUGUGGGUCGCGGGCAGAAGGACAUGAGGAUCACCCAUGUUUCGGGCUUGGCUUGGGCGGGCGC [-21, -19 kcal and 14% A] (Eterna round: R96, puzzle: Exclusion NG 1)” the “apparent KD of MS2 coat protein” value (input ligand: FMN 200 uM) was 0.0167 µM, the “apparent KD of MS2 coat protein” value [4] was 0.0124 µM and the “apparent KD of MS2 coat protein” value (input ligand: none) was 0.0176 µM.

With “AAAUUGGUAGAGGAUAUCGUACAGGAAACGAUGCGAGAAGGUUGCACAUGAGGAUCACCCAUGUUUAGUUGCGA [EX6 #43] (Eterna round: R97, puzzle: Exclusion 6)” the “apparent KD of MS2 coat protein” value (input ligand: FMN 200 uM) was 0.0233 µM and the “apparent KD of MS2 coat protein” value (input ligand: none) was 0.0208 µM.

For “UGAUCUAGCGGAGGAUAUACAUGAGGAUCACCCAUGUAUAGGCUAUGACCGUAGUCGUGGCACAUGUAGAAGGCCGCUAGAUCU [JL ENG2 3.78] (Eterna round: R96, puzzle: Exclusion NG 2)”, the “apparent KD of MS2 coat protein” value (input ligand: FMN 200 uM) was 0.0437 µM, the “apparent KD of MS2 coat protein” value [4] was 0.0128 µM and the “apparent KD of MS2 coat protein” value (input ligand: none) was 0.0152 µM.

In the case of “UAGUAUCUGCAGGAUAUCAGUGGAAAACACGUAUGAGAAGGGCAGACAUGAGGAUCACCCAUGUAAAGGGUCCG [BotMod 10 - Jieux - Exclusion 6] (Eterna round: R97, puzzle: Exclusion 6)”, the “apparent KD of MS2 coat protein” value (input ligand: FMN 200 uM) was 0.541 µM and the “apparent KD of MS2 coat protein” value (input ligand: none) was 0.173 µM.
